Key:
RadA (Sms) wild type [1] = biological target: T1, RadA (Sms) wild type (Escherichia coli, UniProt P24554 1-460); assay: EMSA; 1 mM ADP (standard); apparent; Hill coefficient 1.5; 50 mM Tris-HCl pH 7.5, 10 mM MgCl2, 0.1 mM EDTA, 75 mM NaCl, 5 mM DTT, 100 ug/ml BSA, 1 mM nucleotide, 100 fmol DNA, 37 C for 20-30 min; 6% TBE polyacrylamide gel at room temperature; details: protein: recombinant; tags: eXact tag cleaved; 2 extra N-terminal residues Thr-Ser remain; chain copies: 6
T1 sequence: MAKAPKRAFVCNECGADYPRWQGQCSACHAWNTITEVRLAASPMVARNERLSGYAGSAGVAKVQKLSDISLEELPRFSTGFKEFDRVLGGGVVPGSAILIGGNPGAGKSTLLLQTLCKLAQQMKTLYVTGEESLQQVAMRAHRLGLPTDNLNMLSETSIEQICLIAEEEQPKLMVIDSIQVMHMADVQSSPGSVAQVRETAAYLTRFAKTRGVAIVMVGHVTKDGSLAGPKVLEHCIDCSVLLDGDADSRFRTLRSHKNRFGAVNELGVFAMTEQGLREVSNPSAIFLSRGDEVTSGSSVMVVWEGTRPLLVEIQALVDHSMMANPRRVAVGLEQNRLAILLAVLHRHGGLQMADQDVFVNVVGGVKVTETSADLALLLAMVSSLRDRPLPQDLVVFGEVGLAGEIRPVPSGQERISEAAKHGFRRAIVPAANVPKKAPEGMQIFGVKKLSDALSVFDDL

RadA (Sms) wild type [2] = biological target: T1, RadA (Sms) wild type; assay: competition; unlabeled competitor vs labeled poly(dT)30, 1 mM ADP; 50 mM Tris-HCl pH 7.5, 10 mM MgCl2, 0.1 mM EDTA, 75 mM NaCl, 5 mM DTT, 100 ug/ml BSA, 1 mM nucleotide, 100 fmol DNA, 37 C for 20-30 min; 6% TBE polyacrylamide gel at room temperature; details: protein: recombinant; tags: eXact tag cleaved; 2 extra N-terminal residues Thr-Ser remain; chain copies: 6

Question: For TTTTTTTTTTTTTTTTTTTTTTTTTTTTTT (ssDNA) [poly(dT)30], which Kd (RadA (Sms) wild type [1]) is on record?
Answer: Its Kd is 110 ± 14 nM.

Question: Does AAAAAAAAAAAAAAAAAAAAAAAAAAAAAAAAA (ssDNA) [poly(dA)33] bind (RadA (Sms) wild type [2])?
Answer: Result: no binding
